# From patent US9193965B2, “Acetolactate synthase having 2-ketoisovalerate decarboxylase activity and uses thereof” (The Regents of the University of California, priority 2010, dated 2015)
# Substrate: CC(=O)C(=O)O
# Test: purified protein, by the assay type
# Conditions: pH 7.0, 37° C., 0.1 mM TPP, ± standard deviation
# Experimental: The wild type AlsS and AlsS variants were synthesized from a His-tag plasmid in E. coli strain BL21 Star™ (DE3) (Invitrogen (Carlsbad, Calif.)) followed by purification with Ni-nitrilotriacetic acid (NTA) spin columns (Qiagen (Valencia, Calif.)). Protein concentrations were determined by the Bradford assay (Bio-Rad (Hercules, Calif.)).
# Als enzyme activity. An enzyme assay for Als activity of AlsS was carried out in 1 ml of morpholinepropanesulfonic acid (MOPS) buffer (pH 7.0) containing 80 nM AlsS, 100 mM MOPS (pH 7.0), 1 mM MgCl2, 0.1 mM TPP, 10 mM acetate, and various concentrations of pyruvate at 37° C. for 10 min. The reaction was terminated by acidification of the solution with 0.1 ml of 50% H2SO4. The mixture was incubated for an additional 25 min at 37° C. to allow for the acid hydrolysis of the acetolactate to acetoin. […] One unit of enzyme activity was defined as the amount of enzyme that converts 1 μmol of substrate into product in 1 minute under these conditions. The Km values for pyruvate and the Vmax were extrapolated after nonlinear regression of the experimental points with the Gauss-Newton method using Matlab.
protein,measurement,setting,value
"Bacillus subtilis acetolactate synthase AlsS, wild type (Q at residue 487), SEQ ID NO: 2 (Bacillus subtilis subsp. subtilis str. 168) (protein) VLTKATKEQKSLVKNRGAELVVDCLVEQGVTHVFGIPGAKIDAVFDALQDKGPEIIVARHEQNAAFMAQAVGRLTGKPGVVLVTSGPGASNLATGLLTANTEGDPVVALAGNVIRADRLKRTHQSLDNAALFQPITKYSVEVQDVKNIPEAVTNAFRIASAGQAGAAFVSFPQDVVNEVTNTKNVRAVAAPKLGPAADDAISAAIAKIQTAKLPVVLVGMKGGRPEAIKAVRKLLKKVQLPFVETYQAAGTLSRDLEDQYFGRIGLFRNQPGDLLLEQADVVLTIGYDPIEYDPKFWNINGDRTIIHLDEIIADIDHAYQPDLELIGDIPSTINHIEHDAVKVEFAEREQKILSDLKQYMHEGEQVPADWKSDRAHPLEIVKELRNAVDDHVTVTCDIGSHAIWMSRYFRSYEPLTLMISNGMQTLGVALPWAIGASLVKPGEKVVSVSGDGGFLFSAMELETAVRLKAPIVHIVWNDSTYDMVAFQQLKKYNRTSAVDFGNIDIVKYAESFGATGLRVESPDQLADVLRQGMNAEGPVIIDVPVDYSDNINLASDKLPKEFGELMKTKAL",Km,other: wild type,13.6 ± 0.8 mM
same,kcat,other: wild type,121 ± 13 s⁻¹
Bacillus subtilis acetolactate synthase AlsS variant Q487S (Bacillus subtilis subsp. subtilis str. 168; Q486S) (protein) VLTKATKEQKSLVKNRGAELVVDCLVEQGVTHVFGIPGAKIDAVFDALQDKGPEIIVARHEQNAAFMAQAVGRLTGKPGVVLVTSGPGASNLATGLLTANTEGDPVVALAGNVIRADRLKRTHQSLDNAALFQPITKYSVEVQDVKNIPEAVTNAFRIASAGQAGAAFVSFPQDVVNEVTNTKNVRAVAAPKLGPAADDAISAAIAKIQTAKLPVVLVGMKGGRPEAIKAVRKLLKKVQLPFVETYQAAGTLSRDLEDQYFGRIGLFRNQPGDLLLEQADVVLTIGYDPIEYDPKFWNINGDRTIIHLDEIIADIDHAYQPDLELIGDIPSTINHIEHDAVKVEFAEREQKILSDLKQYMHEGEQVPADWKSDRAHPLEIVKELRNAVDDHVTVTCDIGSHAIWMSRYFRSYEPLTLMISNGMQTLGVALPWAIGASLVKPGEKVVSVSGDGGFLFSAMELETAVRLKAPIVHIVWNDSTYDMVAFSQLKKYNRTSAVDFGNIDIVKYAESFGATGLRVESPDQLADVLRQGMNAEGPVIIDVPVDYSDNINLASDKLPKEFGELMKTKAL,Km,other: Q487S,1.1 ± 0.6 mM
same,kcat,other: Q487S,11 ± 6 s⁻¹
"Bacillus subtilis acetolactate synthase AlsS variant Q487A, SEQ ID NO: 10 (Bacillus subtilis subsp. subtilis str. 168; Q486A) (protein) VLTKATKEQKSLVKNRGAELVVDCLVEQGVTHVFGIPGAKIDAVFDALQDKGPEIIVARHEQNAAFMAQAVGRLTGKPGVVLVTSGPGASNLATGLLTANTEGDPVVALAGNVIRADRLKRTHQSLDNAALFQPITKYSVEVQDVKNIPEAVTNAFRIASAGQAGAAFVSFPQDVVNEVTNTKNVRAVAAPKLGPAADDAISAAIAKIQTAKLPVVLVGMKGGRPEAIKAVRKLLKKVQLPFVETYQAAGTLSRDLEDQYFGRIGLFRNQPGDLLLEQADVVLTIGYDPIEYDPKFWNINGDRTIIHLDEIIADIDHAYQPDLELIGDIPSTINHIEHDAVKVEFAEREQKILSDLKQYMHEGEQVPADWKSDRAHPLEIVKELRNAVDDHVTVTCDIGSHAIWMSRYFRSYEPLTLMISNGMQTLGVALPWAIGASLVKPGEKVVSVSGDGGFLFSAMELETAVRLKAPIVHIVWNDSTYDMVAFAQLKKYNRTSAVDFGNIDIVKYAESFGATGLRVESPDQLADVLRQGMNAEGPVIIDVPVDYSDNINLASDKLPKEFGELMKTKAL",Km,other: Q487A,8.7 ± 0.5 mM
same,kcat,other: Q487A,58 ± 8 s⁻¹
Bacillus subtilis acetolactate synthase AlsS variant Q487G (Bacillus subtilis subsp. subtilis str. 168; Q486G) (protein) VLTKATKEQKSLVKNRGAELVVDCLVEQGVTHVFGIPGAKIDAVFDALQDKGPEIIVARHEQNAAFMAQAVGRLTGKPGVVLVTSGPGASNLATGLLTANTEGDPVVALAGNVIRADRLKRTHQSLDNAALFQPITKYSVEVQDVKNIPEAVTNAFRIASAGQAGAAFVSFPQDVVNEVTNTKNVRAVAAPKLGPAADDAISAAIAKIQTAKLPVVLVGMKGGRPEAIKAVRKLLKKVQLPFVETYQAAGTLSRDLEDQYFGRIGLFRNQPGDLLLEQADVVLTIGYDPIEYDPKFWNINGDRTIIHLDEIIADIDHAYQPDLELIGDIPSTINHIEHDAVKVEFAEREQKILSDLKQYMHEGEQVPADWKSDRAHPLEIVKELRNAVDDHVTVTCDIGSHAIWMSRYFRSYEPLTLMISNGMQTLGVALPWAIGASLVKPGEKVVSVSGDGGFLFSAMELETAVRLKAPIVHIVWNDSTYDMVAFGQLKKYNRTSAVDFGNIDIVKYAESFGATGLRVESPDQLADVLRQGMNAEGPVIIDVPVDYSDNINLASDKLPKEFGELMKTKAL,Km,other: Q487G,1.6 ± 0.4 mM
same,kcat,other: Q487G,11 ± 5 s⁻¹
